Experimental data as given in article PMC7533328, “Sulfane sulfur‐activated actinorhodin production and sporulation is maintained by a natural gene circuit in Streptomyces coelicolor”.

Columns and labels:
[1] = target: T1, ScCsoR (Streptomyces coelicolor M145) (UniProt Q9RD62); experiment: EMSA; details: 20 mM Tris-HCl pH 8.0, 2 mM EDTA, 20 mM KCl, 0.5 mM DTT (or 1-3 mM HSnH), 4% Ficoll-400, 1 nM probe, 25 C, 15 min
T1 sequence: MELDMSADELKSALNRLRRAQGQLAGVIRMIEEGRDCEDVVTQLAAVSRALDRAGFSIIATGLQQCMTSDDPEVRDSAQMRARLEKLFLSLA

[2] = system: T2, ScCsoR-C37S C38S (Streptomyces coelicolor M145), ORF:9a82776c; experiment: EMSA; details: 20 mM Tris-HCl pH 8.0, 2 mM EDTA, 20 mM KCl, 0.5 mM DTT (or 1-3 mM HSnH), 4% Ficoll-400, 1 nM probe, 25 C, 15 min
T2 sequence: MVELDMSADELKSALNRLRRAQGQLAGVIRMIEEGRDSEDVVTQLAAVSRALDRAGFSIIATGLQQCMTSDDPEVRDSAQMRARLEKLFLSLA

[3] = system: T3, ScCsoR-C37S-C66S C38S;C67S (Streptomyces coelicolor M145), ORF:9a82776c; experiment: EMSA; details: 20 mM Tris-HCl pH 8.0, 2 mM EDTA, 20 mM KCl, 0.5 mM DTT (or 1-3 mM HSnH), 4% Ficoll-400, 1 nM probe, 25 C, 15 min
T3 sequence: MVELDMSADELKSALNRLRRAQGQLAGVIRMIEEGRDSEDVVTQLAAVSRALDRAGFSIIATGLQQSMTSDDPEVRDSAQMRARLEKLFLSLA

[4] = system: T4, ScCsoR-C66S C67S (Streptomyces coelicolor M145), ORF:9a82776c; experiment: EMSA; details: 20 mM Tris-HCl pH 8.0, 2 mM EDTA, 20 mM KCl, 0.5 mM DTT (or 1-3 mM HSnH), 4% Ficoll-400, 1 nM probe, 25 C, 15 min
T4 sequence: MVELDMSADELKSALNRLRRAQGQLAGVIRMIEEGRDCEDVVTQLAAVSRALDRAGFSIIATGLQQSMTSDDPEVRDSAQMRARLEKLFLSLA

[5] = target: T5, ScCsoR (Streptomyces coelicolor M145, UniProt Q9RD62 1-92); experiment: competition EMSA; 50-fold excess over 79-bp probe; 20 mM Tris-HCl pH 8.0, 2 mM EDTA, 20 mM KCl, 0.5 mM DTT (or 1-3 mM HSnH), 4% Ficoll-400, 1 nM probe, 25 C, 15 min; details: protein: recombinant; tags: N-terminal His-tag (pET15b); chain copies: 4; blunt
T5 sequence: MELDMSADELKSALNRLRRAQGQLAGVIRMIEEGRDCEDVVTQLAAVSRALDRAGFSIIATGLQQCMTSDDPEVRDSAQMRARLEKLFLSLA

[6] = target: T5, ScCsoR; experiment: EMSA; DTT; also with 50-fold competitor DNA; 20 mM Tris-HCl pH 8.0, 2 mM EDTA, 20 mM KCl, 0.5 mM DTT (or 1-3 mM HSnH), 4% Ficoll-400, 1 nM probe, 25 C, 15 min; details: protein: recombinant; tags: N-terminal His-tag (pET15b); chain copies: 4; label: 5'-biotin on strand 1; blunt

| Molecule | binding [1] | other results |
| --- | --- | --- |
| CGACGACGGTGAACTCGGCCAGGCGGGCCGCCGCCTGCCCGGTGGTCAGTGCGGTGGCGGTTGCTGCGGGGGTGTTCACGGAGCGAGACCTTTCTCGTTGTTCGTCCCCCCGCGCGGTAGGATACCCGCGGGGGTATGTGGGGTTCGGTGAGGTATCGGGTGGAGGAGAGGGAGAAGCGTGGAGCTCGACATGTCGGCCGACGAACTGAAGTCGGCGCTGAACCGGCTGCGGCGCGCCCAGGGGCAGCTCGCGGGAGTCAT (double strand) [SccsoR-Scrhod intergenic region 261 bp] | binds |  |
| ACGGCGCGGGGGCGGCGTGAGCAGACGACGAGCACACCCTCTCAATACCCCCCTGGGTATATCTGTTACGGTGGCCGGAAGAGATACCCCAGGGGGTAATTCCGGAAGGA (double strand) [Scpdo promoter f2] | binds |  |
| TCTGCTCACGCCGCCCCCGCGCCGTCGCGGGCCGAGTGCGCCGCCGCTGCGCGCCTGTGCCGCGAGACCCGGGCAACTCCGGTGTACGACGCCGAAGTTGGGGTAC (double strand) [Scpdo promoter f1] | no binding |  |
| GCCAGATAGCTGCGGTTGCCCAGTGACTCGGTCTCCAGGACGTCGACAAAGAACACGGCACGCTCTCCTTCCGGAATTACCCCCTGGGGTATCTCTTCCGGCCACCGTAACAGATATACCCAGGGGGGTATTGAGAGGGTGTGCTCGTCGTCTGCTCACGCCGCCCCCGCGCCGTCGCGGGCCGAGTGCGCCGCCGCTGCGCGCCTGTGCCGCGAGACCCGGGCAACTCCGGTGTACGACGCCGAAGTTGGGGTAC (double strand) [Scpdo promoter 256 bp] | binds | binding [2]: binds; binding [3]: binds; binding [4]: binds |
| CGGTGACCTTCTCCGCCCCGTGTTCGGCGGCGAGGCGCACCGCGGCCTCGGCCAGAGCGGCACGTGTGGCCCGCTTCTTCCGCTCCCGCAGACCGCCCCCCGCGGCACCCTTCTCCGACATAAGTTGCATGGTATGCAAAGATGCATGACATGCAAAATTGGCGGGCGCCGACCCCGGAAGGGGATCGGCGCCCGCCGTCGTCGGTGCGGCTCAGGCGGCCAGTCGGGCCAGCGTCTCCTCG (double strand) [sco0622 promoter 242 bp] | no binding |  |
| AGGACGTCGACAAAGAACACGGCACGCTCTCCTTCCGGAATTACCCCCTGGGGTATCTCTTCCGGCCACCGTAACAGATATACCCAGGGGGGTATTGAGAGGGTGTGC (double strand) [Scpdo promoter f3] | binds |  |
| GCCAGATAGCTGCGGTTGCCCAGTGACTCGGTCTCCAGGACGTCGACAAAGAACACGGCACGCTCTCCTTCCGGAATTACCCCCTGGGGTATCTCTTCCGGCCACCGT (double strand) [Scpdo promoter f4] | no binding |  |
| hrdB 79-bp competitor DNA (dsDNA) DNA 1: CATTCCCAAGCCGGTGGTCGGCCCCTGTCCGCCGTGGACGGGGCCGGAAGCCGTTTTTCAACGTTCCGAGAGGTTGTTC DNA 2: GAACAACCTCTCGGAACGTTGAAAAACGGCTTCCGGCCCCGTCCACGGCGGACAGGGGCCGACCACCGGCTTGGGAATG |  | binding result [5]: no binding |
| Scpdo 79-bp probe (bsI, bsII) (dsDNA) DNA 1: CCTGGGTATATCTGTTACGGTGGCCGGAAGAGATACCCCAGGGGGTAATTCCGGAAGGAGAGCGTGCCGTGTTCTTTGT DNA 2: ACAAAGAACACGGCACGCTCTCCTTCCGGAATTACCCCCTGGGGTATCTCTTCCGGCCACCGTAACAGATATACCCAGG |  | binding result [6]: binds |
